Experimental data: US20100093634A1 (UNIVERSITY OF MARYLAND BALTIMORE, published 2010)

T1: myc-tagged ARH (human, UniProt Q5SW96 1-308, limits assumed)
T1 construct: Expressed in COS-7 cells
T1 sequence: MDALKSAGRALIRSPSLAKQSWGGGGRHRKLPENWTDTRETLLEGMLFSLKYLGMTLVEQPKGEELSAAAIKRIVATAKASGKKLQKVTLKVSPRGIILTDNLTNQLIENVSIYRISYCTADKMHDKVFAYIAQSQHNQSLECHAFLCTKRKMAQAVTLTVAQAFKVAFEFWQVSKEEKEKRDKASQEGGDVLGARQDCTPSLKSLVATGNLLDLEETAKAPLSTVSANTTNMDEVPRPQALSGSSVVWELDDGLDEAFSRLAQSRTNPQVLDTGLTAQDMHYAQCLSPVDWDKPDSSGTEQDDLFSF


Columns and labels:
[1] = target: N2.1/ROMK chimera with the N375PNF tract replaced with AAAA; test: cell-based or functional assay
[2] = target: T1, myc-tagged ARH; test: co-immunoprecipitation from COS-7 cells
Protocol: Using immunofluorescent confocal microscopy it was determined that ARH is predominately expressed in the distal nephron, where it co-localizes with ROMK in subapical and perinuclear compartments (FIG. 2A). See Example D. It was also determined that ROMK co-immunoprecipitates with ARH on anti-ARH antibody-bound beads but not with an unrelated IgG (FIG. 2B). The specificity of the ARH-ROMK co-immunoprecipitation was corroborated by similar studies with different antibodies, HA-epitope-tagged ROMK and myc-tagged-ARH in COS-7 cells (FIGS. 2C & D). Importantly, alanine replacement of the NPNF motif in ROMK completely abrogated the ARH-ROMK co-immunoprecipitation.

surface expression [1] | binding result [2] | Molecule
100% | – | ARH co-expressed in COS-7 cells (from UniProt Q5SW96 1-308)
– | no binding | HA-epitope-tagged mutant ROMK lacking the NPXF motif (alanine replacement of the NPNF motif) (other, Expressed in COS-7 cells) MGASERSVFRVLIRALTERMFKHLRRWFITHIFGRSRQRARLVSKEGRCNIEFGNVDAQSRFIFFVDIWTTVLDLKWRYKMTVFITAFLGSWFLFGLLWYVVAYVHKDLPEFYPPDNRTPCVENINGMTSAFLFSLETQVTIGYGFRFVTEQCATAIFLLIFQSILGVIINSFMCGAILAKISRPKKRAKTITFSKNAVISKRGGKLCLLIRVANLRKSLLIGSHIYGKLLKTTITPEGETIILDQTNINFVVDAGNENLFFISPLTIYHIIDHNSPFFHMAAETLSQQDFELVVFLDGTVESTSATCQVRTSYVPEEVLWGYRFVPIVSKTKEGKYRVDFHNFGKTVEVETPHCAMCLYNEKDARARMKRGYDAAAAVLSEVDETDDTQM
